From patent US20260209362A1 (VIB VZW, published 2026)

T1: biotinylated recombinant human IL-12Rβ2 (produced in-house) (human, UniProt Q99665 24-622, random biotinylated)
T1 construct: also called hIL-12RB2; hIL12RB2
T1 sequence: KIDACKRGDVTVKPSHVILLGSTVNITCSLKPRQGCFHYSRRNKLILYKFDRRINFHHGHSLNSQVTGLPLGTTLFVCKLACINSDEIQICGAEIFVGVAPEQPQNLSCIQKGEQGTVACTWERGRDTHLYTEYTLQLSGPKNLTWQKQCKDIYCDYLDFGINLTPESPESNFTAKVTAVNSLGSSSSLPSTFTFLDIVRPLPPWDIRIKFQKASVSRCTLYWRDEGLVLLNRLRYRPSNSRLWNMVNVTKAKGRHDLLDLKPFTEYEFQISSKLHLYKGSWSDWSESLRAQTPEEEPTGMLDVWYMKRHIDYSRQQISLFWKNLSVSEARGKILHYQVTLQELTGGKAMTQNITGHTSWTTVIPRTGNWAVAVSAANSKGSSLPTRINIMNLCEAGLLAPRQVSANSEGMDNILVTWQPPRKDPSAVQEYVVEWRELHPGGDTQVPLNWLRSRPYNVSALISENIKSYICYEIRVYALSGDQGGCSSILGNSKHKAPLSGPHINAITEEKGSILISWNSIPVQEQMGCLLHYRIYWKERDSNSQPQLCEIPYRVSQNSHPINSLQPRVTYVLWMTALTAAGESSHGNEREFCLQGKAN

T2: biotinylated recombinant mouse IL-12Rβ2 (produced in-house) (mouse, UniProt P97378 24-637, random biotinylated)
T2 construct: also called mIL-12RB2; mIL12RB2
T2 sequence: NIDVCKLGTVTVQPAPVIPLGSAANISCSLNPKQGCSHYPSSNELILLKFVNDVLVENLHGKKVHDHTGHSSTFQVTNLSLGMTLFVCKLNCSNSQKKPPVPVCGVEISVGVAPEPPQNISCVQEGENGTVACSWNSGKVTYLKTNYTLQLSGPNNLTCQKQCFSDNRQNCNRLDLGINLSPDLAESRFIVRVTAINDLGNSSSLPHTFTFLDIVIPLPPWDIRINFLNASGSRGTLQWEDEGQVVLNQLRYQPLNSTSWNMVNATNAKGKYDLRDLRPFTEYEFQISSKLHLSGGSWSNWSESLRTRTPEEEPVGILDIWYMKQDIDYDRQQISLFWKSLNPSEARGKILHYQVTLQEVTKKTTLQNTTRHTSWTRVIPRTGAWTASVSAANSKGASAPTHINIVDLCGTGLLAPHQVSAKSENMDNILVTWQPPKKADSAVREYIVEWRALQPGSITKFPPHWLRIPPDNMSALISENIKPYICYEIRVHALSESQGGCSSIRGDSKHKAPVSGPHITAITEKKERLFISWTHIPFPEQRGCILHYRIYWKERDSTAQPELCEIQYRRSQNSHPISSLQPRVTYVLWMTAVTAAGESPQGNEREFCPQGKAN

T3: mouse IL-12Rβ2 expressed on cells (mouse, UniProt P97378 24-874)
T3 construct: HEK293T cells, stably transduced (cDNA NM_008354); also called mIL-12RB2
T3 sequence: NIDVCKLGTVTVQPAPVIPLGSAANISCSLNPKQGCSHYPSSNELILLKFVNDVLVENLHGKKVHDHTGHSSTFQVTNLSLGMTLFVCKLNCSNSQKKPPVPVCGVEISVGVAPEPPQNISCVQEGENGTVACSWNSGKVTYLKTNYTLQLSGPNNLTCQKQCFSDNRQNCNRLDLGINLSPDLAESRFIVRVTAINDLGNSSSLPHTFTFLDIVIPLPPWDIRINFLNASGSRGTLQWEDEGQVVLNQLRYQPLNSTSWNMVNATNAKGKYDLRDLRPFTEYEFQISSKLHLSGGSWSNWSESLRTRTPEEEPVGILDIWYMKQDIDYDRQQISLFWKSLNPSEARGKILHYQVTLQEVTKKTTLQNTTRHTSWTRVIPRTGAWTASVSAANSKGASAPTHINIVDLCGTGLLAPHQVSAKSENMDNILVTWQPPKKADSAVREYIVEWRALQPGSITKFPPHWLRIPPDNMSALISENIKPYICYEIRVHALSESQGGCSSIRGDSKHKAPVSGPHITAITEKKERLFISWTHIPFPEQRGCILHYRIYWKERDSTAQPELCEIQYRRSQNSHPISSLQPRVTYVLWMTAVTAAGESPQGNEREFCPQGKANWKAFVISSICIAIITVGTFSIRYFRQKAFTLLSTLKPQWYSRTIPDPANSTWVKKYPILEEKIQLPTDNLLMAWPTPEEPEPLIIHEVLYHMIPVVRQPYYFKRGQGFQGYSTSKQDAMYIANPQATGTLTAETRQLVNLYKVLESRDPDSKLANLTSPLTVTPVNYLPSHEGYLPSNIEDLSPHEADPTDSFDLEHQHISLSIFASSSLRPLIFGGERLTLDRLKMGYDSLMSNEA


Experiments:
[1] = biological target: T1, biotinylated recombinant human IL-12Rβ2 …; assay: BLI (Octet), P.E. VHH on immobilised biotinylated hIL-12RB2
[2] = biological target: T1, biotinylated recombinant human IL-12Rβ2 …; assay: BLI (Octet), P.E. VHH on immobilised biotinylated hIL-12RB2, 1:1 model
[3] = biological target: T1, biotinylated recombinant human IL-12Rβ2 …; assay: ELISA, P.E. VHH on biotinylated hIL-12RB2, signal ratio to control well
[4] = biological target: T2, biotinylated recombinant mouse IL-12Rβ2 …; assay: ELISA, P.E. VHH on biotinylated mIL-12RB2, signal ratio to control well
[5] = biological target: T3, mouse IL-12Rβ2 expressed on cells; assay: flow cytometry, P.E. VHH on HEK293T cells transiently expressing mIL-12RB2

Binder	Response [1]	koff [2]	ELISA hIL12RB2/control [3]	ELISA mIL12RB2/control [4]	% cells bound [5]	dMFI [5]
anti-IL-12Rβ2 VHH clone 3CAHM11 (VHH, not shown: small tags and cut ends, tested as periplasmic extract) VHH: QVQLQESGGGLVQAGGSLRLSCAASGRTFNNYAMAWFRQAPGKEREFIAAITRSDTTLYIDSVKGRFTISRDNAKNTVALQMNSLKPEDTAVYYCAAGMPYSYSDYPRDSKYDYWGRGTQVTVSS	1.4	0.00519 s⁻¹	3.04	38.8	7.53%	194
anti-IL-12Rβ2 VHH clone 3CRHM14 (VHH, not shown: small tags and cut ends, tested as periplasmic extract) VHH: QVQLQESGGGLVQAGGSLRLSCAASGRTFSNYAMAWFRQAPGTEREFVAGLSGSGGDTEFYDDSVKGRFAISRDSAKNTVWLQMNSLKPEDTAVYYCAAATHVVVHYGLVRRRGTYDYWGQGTQVTVSS	1.19	0.00532 s⁻¹	3.11	25.1	18.6%	312
anti-IL-12Rβ2 VHH clone 3CRHM73 (VHH, not shown: small tags and cut ends, tested as periplasmic extract; also called 21060) VHH: QVQLQESGGGLVQAGGSLSLSCAASGSAFRLNFMGWYRQAPGKQRELVAAINSGGTEIYHDSVKGRFTISRDNADSTVWLQMNSLKPDDTAVYYCAADRGISWSKLAGGMDYWGKGTQVTVSS	1.45	0.00605 s⁻¹	6.9	26.3	10.4%	257
anti-IL-12Rβ2 VHH clone 3CRHM99 (VHH, not shown: small tags and cut ends, tested as periplasmic extract; also called 21062) VHH: QVQLQESGGGLVQPGGSLRLSCAASGISSSRLHVGWFRQSPGKEREFVAAISLSGGTQAYTDSVKGRFTISGDNVKNTAYLQMNSLRPEDTAVYYCAARERFIWTWSDLTYDYWGQGTQVTVSS	1.45	0.00634 s⁻¹	4.24	5.24	10.7%	251
